Test results as given in article PMC12589563.

Target: KCNQ1 of the KCNQ1APO structure (human) (UniProt P51787)
Experiment: cryo-EM structure; human KCNQ1 with CaM, apo state; C4 symmetry, 2.5 Å

stoichiometry N: 4
Substance: KCNQ1 of the KCNQ1APO structure (from UniProt P51787 1-676) (natural protein)
